Target: the molecule itself
Test: size exclusion chromatography, Superdex 75, non-denaturing; self-association (dimerization)

B1: Mocr protein (monomeric Ocr, F53R and V77D) as produced from the pMCSG7 vector (pMocr) (other)
chain: MHHHHHHSSGVDLAMSNMTYNNVFDHAYEMLKENIRYDDIRDTDDLHDAIHMAADNAVPHYYADIRSVMASEGIDLEFEDSGLMPDTKDDIRILQARIYEQLTIDLWEDAEDLLNEYLEEVEEYEEDEEGTENLYFQSNICSG
notes: […]; The predicted molecular weight is 16.7 kDa; also called synthetic Mocr
binding result: no binding

Source: US20110165624A1 (REGENTS OF THEUNIVERSITY OF MICHIGAN, published 2011)
